Measured values published in paper PMC10054981 (bioRxiv, 2023).
Positions count from the first letter of the chain named. In names and notes the source's numbering stands. Each block holds one molecule with its values, some of them ahead of it.

B1: Speckle-type POZ protein (SPOP) wild type, residues 28-359 (domain or fragment)
chain: KVVKFSYMWTINNFSFCREEMGEVIKSSTFSSGANDKLKWCLRVNPKGLDEESKDYLSLYLLLVSCPKSEVRAKFKFSILNAKGEETKAMESQRAYRFVQGKDWGFKKFIRRDFLLDEANGLLPDDKLTLFCEVSVVQDSVNISGQNTMNMVKVPECRLADELGGLWENSRFTDCCLCVAGQEFQAHKAILAARSPVFSAMFEHEMEESKKNRVEINDVEPEVFKEMMCFIYTGKAPNLDKMADDLLAAADKYALERLKVMCEDALCSNLSVENAAEILILADLHSADQLKTQAVDFINYHASDVLETSGWKSMVVSHPHLVAEAYRSLASA
B2: C-terminal intrinsically disordered region (IDR) of DAXX (cDAXX), fluorescently labeled (domain or fragment)
chain: SPMSSLQISNEKNLEPGKQISRSSGEQQNKGRIVSPSLLSEEPLAPSSIDAESNGEQPEELTLEEESPVSQLFELEIEALPLDTPSSVETDISSSRKQSEEPFTTVLENGAGMVSSTSFNGGVSPHNWGDSGPPCKKSRKEKKQTGSGPLGNSYVERQRSVHEKNGKKICTLPSPPSPLASLAPVADSSTRVDSPSHGLVTSSLCIPSPARLSQTPHSQPPRPGTCKTSVATQCDPEEIIVLSDSD
B3: SPOP R354H, residues 28-359 (domain or fragment)
chain: B1 chain with R327H

Tests used:
[1] = molecular target: fluorescently labeled peptide derived from a SPOP-binding motif from the substrate Puckered; experiment: fluorescence polarisation
CG-MALS = molecular target: the molecule itself; experiment: CG-MALS
[2] = molecular target: B1; experiment: fluorescence polarisation
[3] = molecular target: B3; experiment: fluorescence polarisation
[4] = molecular target: SPOP R221C, residues 28-359 (human, UniProt O43791 28-359, R221C); experiment: fluorescence polarisation

- Kd [1]: 5.9 µM
Molecule: SPOP R221C, residues 28-359 (from UniProt O43791 28-359) (domain or fragment)

- Kd [1]: 4.3 µM
Molecule: SPOP mutBACK (Y353E), residues 28-359 (from UniProt O43791 28-359) (domain or fragment)

- Kd [1]: 9.8 µM
Molecule: Speckle-type POZ protein (SPOP) wild type, residues 28-359 (from UniProt O43791 28-359) (domain or fragment)

- Kd [1]: 5.1 µM
Molecule: SPOP R354H, residues 28-359 (from UniProt O43791 28-359) (domain or fragment)

Molecule: B1
- Kd (CG-MALS): 2.7 µM

Molecule: B2
- Kd [2]: 1.2 µM
- Kd [3]: 3 µM
- Kd [4]: 3.2 µM

Molecule: B3
- Kd (CG-MALS): 26.9 µM
